From patent US20210009685A1 (ALTEOGEN, published 2021)

Columns and labels:
FOLR1-Fc [1] = biological target: T1, FOLR1-Fc (UniProt P15328 25-234, limits assumed); assay: ELISA, FOLR1-Fc coated (experiment with vAb1); the parent is the reference
T1 construct: also called FOLR1 (ELISA coating); not shown: Fc part

FOLR1-Fc [2] = biological target: T1, FOLR1-Fc; assay: ELISA, FOLR1-Fc coated, antibody titrated (experiment with vAb3, vAb4, vAb5)
Experimental: (§1) For the purpose of comparing the binding affinities of the primarily selected clones with each other, ELISA was performed at different clone concentrations in the following manner. 25 μL of FOLR1 was added to each well of a 96-well plate at a concentration of 1 μg/mL, coated on the plate at room temperature for 1 hour, and then blocked with 180 μL of 3% skim milk at room temperature for 1 hour. During blocking, samples to be used as primary antibodies were prepared. As primary antibodies, samples selected by screening were used. The samples were diluted to a concentration of 0.1 to 100 nM (0, 0.1, 0.3, 1, 3, 10, 30, and 100 nM) and cold-stored until use. After blocking, 3% skim milk was removed, and 25 μL of the primary antibody was added to each well and allowed to react at room temperature for 1 hour or more. After completion of the reaction, each well was washed three times with PBS-Tween20 (0.1%) buffer. […] After about 5 minutes, 25 μL of 1 M H₂SO₄ was added to each well to stop the reaction, and the absorbance at a wavelength of 450 nm was measured. From the measurement results, the EC (Effector concentration) value was calculated using the GraphPad Prism 7 program.
(§2) The measured values are obtained in different experiments for comparison with the parent antibody.

[3] = biological target: T2, Folate receptor alpha (FOLR1) (human, UniProt P15328 25-234, limits assumed); assay: SPR, Biacore3000, FOLR1 immobilised; the parent is the reference
T2 construct: Antigen printed simply as FOLR1 for the panning, the clone ELISA and the SPR chip; also called human FOLR1; folate receptor-α
Experimental: (§3) To measure the binding affinity of the selected clone for FOLR1, SPR measurement was performed using a Biacore3000. Before each sample was loaded, a CM5 sensor chip was activated with 0.1 M NHS/0.4 M EDC, and then FOLR1 (20 μg/mL in 10 mM acetate, pH 5.0) was immobilized thereon. Then, unreacted NHS was deactivated with 1 M ethanolamine. 250 μL of each sample was prepared at concentrations of 1, 2, 5, 10, 20 and 40 nM, and association and dissociation sensorgrams were obtained while each sample was flushed at 30 μl/min. The sensor chip was regenerated with 10 mM glycine (pH 2.1). The obtained sensorgrams were analyzed using the BIAevaluation software, and the KD values were calculated.
(§4) To measure the binding affinity of the modified antibody vAb1 produced in Example 2 for FOLR1, an SPR assay was performed using a Biacore3000, in the same manner as described in Examples 1-5. The sensorgram was analyzed using the BIAevaluation software, and the KD value was calculated. […] This value is similar to the relative ratio of the values obtained using ELISA.

FOLR1-Fc [4] = biological target: T1, FOLR1-Fc; assay: ELISA, FOLR1-Fc coated, antibody titrated (experiment with vAb2)
Experimental: as §1, §2

FOLR1-Fc [5] = biological target: T1, FOLR1-Fc; assay: ELISA, FOLR1-Fc coated (experiment with vAb2); the parent is the reference
FOLR1-Fc [6] = biological target: T1, FOLR1-Fc; assay: ELISA, FOLR1-Fc coated, antibody titrated (experiment with vAb1)
Experimental: as §1, §2

FOLR1-Fc [7] = biological target: T1, FOLR1-Fc; assay: ELISA, FOLR1-Fc coated (experiment with vAb3, vAb4, vAb5); the parent is the reference
Experimental: as §1, §2

[8] = biological target: T2, Folate receptor alpha (FOLR1); assay: SPR, Biacore3000, FOLR1 immobilised on CM5 chip, antibody as analyte
Experimental: as §3, §4

FOLR1-Fc [9] = biological target: T1, FOLR1-Fc; assay: ELISA, FOLR1-Fc coated, antibody titrated
Experimental: (§5) For the purpose of comparing the binding affinities of the primarily selected clones with each other, ELISA was performed at different clone concentrations in the following manner. 25 μL of FOLR1 was added to each well of a 96-well plate at a concentration of 1 μg/mL, coated on the plate at room temperature for 1 hour, and then blocked with 180 μL of 3% skim milk at room temperature for 1 hour. During blocking, samples to be used as primary antibodies were prepared. As primary antibodies, samples selected by screening were used. The samples were diluted to a concentration of 0.1 to 100 nM (0, 0.1, 0.3, 1, 3, 10, 30, and 100 nM) and cold-stored until use. After blocking, 3% skim milk was removed, and 25 μL of the primary antibody was added to each well and allowed to react at room temperature for 1 hour or more. After completion of the reaction, each well was washed three times with PBS-Tween20 (0.1%) buffer. As a secondary antibody, HA-HRP was diluted 3,000-fold with 3% skim milk, and 25 μL of the dilution was added to each well and allowed to react at room temperature for 1 hour or more. After completion of the reaction, each well was washed three times with PBS-Tween20 (0.1%), and 25 μL of substrate TMB was added to each well to confirm color development. After about 5 minutes, 25 μL of 1 M H₂SO₄ was added to each well to stop the reaction, and the absorbance at a wavelength of 450 nm was measured. From the measurement results, the EC (Effector concentration) value was calculated using the GraphPad Prism 7 program.
as §2

FOLR1-Fc [10] = biological target: T1, FOLR1-Fc; assay: ELISA, FOLR1-Fc coated
Experimental: as §5, §2

[11] = biological target: T2, Folate receptor alpha (FOLR1); assay: SPR, Biacore3000, FOLR1 immobilised
Experimental: as §3, §4

T2 sequence (P15328 25-234 limits assumed): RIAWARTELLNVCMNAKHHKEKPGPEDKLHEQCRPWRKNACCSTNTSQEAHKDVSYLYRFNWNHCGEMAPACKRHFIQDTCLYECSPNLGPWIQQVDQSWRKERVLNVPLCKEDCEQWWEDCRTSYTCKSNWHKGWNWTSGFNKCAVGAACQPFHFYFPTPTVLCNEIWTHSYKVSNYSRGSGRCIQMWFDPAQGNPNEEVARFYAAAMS
T1 sequence (P15328 25-234 limits assumed): as above

Relative Potency (FOLR1-Fc [1])	EC50 (FOLR1-Fc [2]) [ng/mL]	Relative Potency [3]	EC50 (FOLR1-Fc [4]) [ng/mL]	Relative Potency (FOLR1-Fc [5])	EC50 (FOLR1-Fc [6]) [ng/mL]	Relative Potency (FOLR1-Fc [7])	Ka [8] [M⁻¹]	Kd [8] [nM]	koff [8] [s⁻¹]	kon [8] [M⁻¹ s⁻¹]	EC50 (FOLR1-Fc [9]) [ng/mL]	Relative Potency (FOLR1-Fc [10])	Relative Potency [11]	Binder
1 fold (reference)	3.04	1 fold (reference)	11.8	1 fold (reference)	11	1 fold (reference)	1.05e+09	0.96	0.000401	419000				Parent antibody (anti-FOLR1 antibody of US2005/0232919 A1) (antibody, V domains shown, also called WT) VH: EVQLVESGGGVVQPGRSLRLSCSASGFTFSGYGLSWVRQAPGKGLEWVAMISSGGSYTYYADSVKGRFAISRDNAKNTLFLQMDSLRPEDTGVYFCARHGDDPAWFAYWGQGTPVTVSS VL: DIQLTQSPSSLSASVGDRVTITCSVSSSISSNNLHWYQQKPGKAPKPWIYGTSNLASGVPSRFSGSGSGTDYTFTISSLQPEDIATYYCQQWSSYPYMYTFGQGTKVEIK
							4.17e+09	0.24	0.000147	612000	2.45	4.48 fold against parent antibody	4 fold against parent antibody	Modified antibody vAb1 (antibody, V domains shown, Carries modified CDR-H3, CDR-L1 and CDR-L2) VH: EVQLVESGGGVVQPGRSLRLSCSASGFTFSGYGLSWVRQAPGKGLEWVAMISSGGSYTYYADSVKGRFAISRDNAKNTLFLQMDSLRPEDTGVYFCARHGDDVAWFAYWGQGTPVTVSS VL: DIQLTQSPSSLSASVGDRVTITCSASSGLSSSYLHWYQQKPGKAPKPWIYGTSSRASGVPSRFSGSGSGTDYTFTISSLQPEDIATYYCQQWSSYPYMYTFGQGTKVEIK
